From PMC3871700, “Unusual N-Prenylation in Diazepinomicin Biosynthesis: The Farnesylation of a Benzodiazepine Substrate Is Catalyzed by a New Member of the ABBA Prenyltransferase Superfamily” (PLoS ONE, 2013)

Legend:
Assay in all cases: purified protein
purified protein [1] = substrate: Oc1ccc2c(O)cccc2c1; type: biochemical, Micromonospora sp. RV115; conditions: FPP as co-substrate; Mg2+ stimulates but is not required
purified protein [2] = substrate: O=C1Nc2ccccc2Nc2ccccc21; type: biochemical, Micromonospora sp. RV115; conditions: FPP as co-substrate; Mg2+ stimulates but is not required
purified protein [3] = substrate: CC(C)=CCC/C(C)=C/COP(=O)(O)OP(=O)(O)O; conditions: […],6-DHN as co-substrate; Mg2+ stimulates but is not required
purified protein [4] = substrate: CC(C)=CCC/C(C)=C/CC/C(C)=C/CO[P@@](=O)(O)OP(=O)(O)O; conditions: […],6-DHN as co-substrate; Mg2+ stimulates but is not required
purified protein [5] = substrate: Oc1ccc2c(O)cccc2c1; type: biochemical, Streptomyces griseoflavus; conditions: FPP as co-substrate; Mg2+ stimulates but is not required

B1: DzmP (Micromonospora sp. RV115) (protein)
chain: MSGTPEVAELYSTIEESARQLDVPCSRDRVWPVLSAYGDAFAHPEAVVAFRVATALRHAGELDCRFRTHPDDRDPYASAIARGLTPRTDHPIGGLLAEVHRRCPVESHGIDFGVVGGFKKIYAAFAPDELQVASVLAGIPAMPRSLAANAGFFTRHGLDDRVGVLGFDYPARTVNVYFNDVPRECFEPETIRSTLRRTGMAEPSEQMLRLGAGAFGLYVTLGWDSPEIERICYAAATTDLTTLPVPVEPEIEKFVKSVPYGGGDRKFVYGVALTPKGEYYKLESHYKWKPGAVNFI
notes: His8-tagged DzmP (296 amino acids)
- K0.5 (purified protein [1]): 18 ± 1 µM
- Km (purified protein [2]): 133 ± 30 µM
- Km (purified protein [3]): 4.9 ± 0.9 µM
- Km (purified protein [4]): 20 µM

B2: Ssrg_00986 (Streptomyces griseoflavus Tu4000) (protein)
chain: MSGTSEADEICSAVTETAGRLGIAFSRDKVWPILSAYGDAFAHAMPLAFRMATGPQHAGDVDCRFITHPKDRNPYPLAVSKGLTPKTSHPVGTLLSEIEERFPIDGYGIDFGVVNGFTKVYAGFAPQDLQNASKLVEIPAMPRSLAGNFDFFVRHGLDDKVAFVAVDYLHRTVNVYFNDVPAACFESDGIRRMLRDLGLPGPSDRMLGIGGQAFGLYITLNWDSPAIERFCFGVTTTDLSSLPVSIEPQLEKFAHCVPYGGADRKFVYGVAAAPEGEYYKLETHYKWNPGTVAFI
notes: His8-tagged Ssrg_00986 (295 amino acids)
- K0.5 (purified protein [5]): 96 ± 11 µM
- Km (purified protein [3]): 45 µM
- Km (purified protein [4]): 45 µM
